Test results taken from patent US12246067B2, “Neoantigens and uses thereof” (priority 2018, dated 2025).

Assays:
HLA-A02:01 [1] = target: T1, HLA-A02:01 (Homo sapiens, UniProt P04439, D140Y/D185E/D98H/E176V/E277Q/G131W/G231S/I119V/I121R/I166T/I218V/L300P/L318F/N151K/N90K/P208A/P217A/Q86G/Q94H/R138H/R169H/T345S); assay: Affinity of neoepitopes for the indicated HLA allele; assay type: binding; conditions: HLA allele A02.01; mutant KRAS peptides (Example 9)
Procedure: (§1) Multiple peptides containing the neoepitopes in the table below were expressed or loaded onto antigen presenting cells (APCs). Mass spectrometry was then performed and the affinity of the neoepitopes for the indicated HLA alleles and stability of the neoepitopes with the HLA alleles was determined.

HLA-A02:01 [2] = target: T1, HLA-A02:01; assay: Stability of neoepitopes with the HLA allele; assay type: binding; conditions: HLA allele A02.01; mutant KRAS peptides (Example 9)
Procedure: as §1

[3] = system: ovarian carcinoma patients; conditions: poly-ICLC in combination with a NYESO-1 peptide vaccine (in addition to Montanide); phase 1 study; cited from earlier work
humans = conditions: cited from earlier work

Row | Substance | Measured Affinity (HLA-A02:01 [1]) [nM] | Measured stability (HLA-A02:01 [2]) [h] | Patients showing induction of CD4+ and CD8+ T cell, as well as antibody responses to the peptide [3] [%] | CD4+ and CD8+ responses in humans (humans)
1 | LVVVGACGV | 667.1 | 0.6 |  | 
2 | LVVVGADGV | 977.4 | 0.0 |  | 
3 | LVVVGAVGV | 682.5 | 0.6 |  | 
4 | poly-ICLC |  |  | > 90 | can induce durable CD4^+ and CD8^+ responses
